Data on 1 molecule can be found in patent US8927230B2, “C-terminal modification of polypeptides” (EUCODIS Bioscience GmbH, priority 2004, dated 2015).

In this data set the target is T1, N^α-benzoylated peptides of SEQ ID NOs: 2-18 (Rattus norvegicus, UniProt P00763, D194K/E154H/K66E/N146H).
T1 construct: made in house; host or cells: E. coli or yeast (general procedure; the host actually used is not fixed)
T1 sequence (P00763 24-246 K66E/N146H/E154H/D194K): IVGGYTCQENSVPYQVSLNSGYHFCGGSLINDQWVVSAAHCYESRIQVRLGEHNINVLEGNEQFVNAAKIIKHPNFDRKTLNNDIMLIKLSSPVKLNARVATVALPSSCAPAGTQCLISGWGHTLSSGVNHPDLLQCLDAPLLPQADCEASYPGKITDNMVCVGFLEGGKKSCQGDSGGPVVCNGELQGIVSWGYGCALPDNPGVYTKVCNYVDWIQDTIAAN
Kind of data set: Influence of the recognition sequence on the rate of reaction catalyzed by the trypsin variant (HPLC, peptide consumption). In kind it is biochemical. The note with it: 1 mM peptide, 20 μM trypsin variant, 100 μM ZnCl2, 0.1 M Pipes/Tris-buffer pH 8.0, 30° C. The source says: Variant trypsin according to the present invention has been tested for catalytic activity upon peptide substrates with different peptide sequences at or close to the cleavage site. The initial rate (v) of peptide consumption is given in nM/min
The N^α-benzoylated peptides of SEQ ID NOs: 2-18 have been synthesized by conventional solid-phase peptide synthesis using Fmoc-chemistry and a preloaded Wang-resin. The respective amino acid building blocks are commercially available and were purchased from various suppliers.
1 ml reaction volume containing 1 mM N^α-benzoylated peptide dissolved in 0.1 M Pipes/Tris-buffer pH 8.0; 20 μM trypsin variant Tn K60E, E151H, N143H, D189K; 100 μM ZnCl2 was stirred at 30° C. After defined time intervals, the reactions were terminated by adding of 1% trifluoroacetic acid in methanol/water (1:1, v/v). The quenched reaction mixtures were analyzed by analytical HPLC. The identity of the final products was verified by mass spectroscopy.

B1: Tn K60E, E151H, N143H, D189K: mutated anionic rat trypsin II, without signal sequence and pro-sequence (SEQ ID NO: 1), with K60E, N143H, E151H, D189K (protein)
chain: IVGGYTCQENSVPYQVSLNSGYHFCGGSLINDQWVVSAAHCYESRIQVRLGEHNINVLEGNEQFVNAAKIIKHPNFDRKTLNNDIMLIKLSSPVKLNARVATVALPSSCAPAGTQCLISGWGHTLSSGVNHPDLLQCLDAPLLPQADCEASYPGKITDNMVCVGFLEGGKKSCQGDSGGPVVCNGELQGIVSWGYGCALPDNPGVYTKVCNYVDWIQDTIAAN
For the molecule B1, the “cleavage site preference (substrate specificity from initial rates of peptide consumption, FIG. 4)” value is “strong preference for a cleavage site comprising L, F or Y in position P1, R or K in position P1′ and His in position P2′”.
